From paper PMC1874611 (Nucleic Acids Research, 2007)

Assays:
[1] = molecular target: T1, chimeric GST-CycT1 (GST-T1; aa 1–292) (UniProt O60563 1-292); test: pull-down
[2] = molecular target: T1, chimeric GST-CycT1 (GST-T1; aa 1–292); test: stopped-flow fluorescence

T1 sequence (O60563 1-292, change not shown): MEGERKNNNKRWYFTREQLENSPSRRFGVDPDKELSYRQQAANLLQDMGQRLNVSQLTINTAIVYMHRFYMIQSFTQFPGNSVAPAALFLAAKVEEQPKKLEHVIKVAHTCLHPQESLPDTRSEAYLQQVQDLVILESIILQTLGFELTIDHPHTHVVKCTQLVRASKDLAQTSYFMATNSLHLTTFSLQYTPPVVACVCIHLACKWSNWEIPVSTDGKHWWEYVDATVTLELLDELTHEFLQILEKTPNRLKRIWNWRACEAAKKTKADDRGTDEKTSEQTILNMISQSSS

Row | binding result [1] | binding result [2] | Binder
1 | binds | – | CycT1-binding domain of HEXIM1 (HEXIM1-TBD; aa 255–359) (domain or fragment) MGGDGSEFLQRDFSETYERYHTESLQNMSKQELIKEYLELEKCLSRMEDENNRLRLESKRLGGDDARVRELELELDRLRAENLQLLTENELHRQQERAPLSKFGD
2 | – | binds | fluorescently labeled HEXIM1-TBD (HEXIM1-TBD*) (domain or fragment, dansyl-based fluorophore (position not given)) MGGDGSEFLQRDFSETYERYHTESLQNMSKQELIKEYLELEKCLSRMEDENNRLRLESKRLGGDDARVRELELELDRLRAENLQLLTENELHRQQERAPLSKFGD
